Results from US20240228596A1 (VIB VZW, published 2024).

Biological target: SARS-COV-1 spike protein on VSV-delG pseudotyped particles (SARS-COV-1, UniProt P59594 14-1255)
Test: cell-based or functional assay

B1: VHH72_h1_S56A (VHH)
VHH: EVQLVESGGGLVQPGGSLRLSCAASGRTFSEYAMGWFRQAPGKEREFVATISWSGGATYYTDSVKGRFTISRDNAKNTVYLQMNSLRPEDTAVYYCAAAGLGTVVSEWDYDYDYWGQGTLVTVSS
IC50 Mean VSV-dG-spike SARS-COV-1: 0.013 µg/mL
